We go through 3 molecules from patent CN116615457A (ICONOSCO S A, dated 2023).

The target in test [1] is T1, 膜结合的小鼠IL-1RAP (NIH-3T3细胞) (mouse, UniProt Q61730 21-570).
T1 construct: whole, on cells; also called mouse IL-1RAP on NIH-3T3 cells
T1 sequence (looked up): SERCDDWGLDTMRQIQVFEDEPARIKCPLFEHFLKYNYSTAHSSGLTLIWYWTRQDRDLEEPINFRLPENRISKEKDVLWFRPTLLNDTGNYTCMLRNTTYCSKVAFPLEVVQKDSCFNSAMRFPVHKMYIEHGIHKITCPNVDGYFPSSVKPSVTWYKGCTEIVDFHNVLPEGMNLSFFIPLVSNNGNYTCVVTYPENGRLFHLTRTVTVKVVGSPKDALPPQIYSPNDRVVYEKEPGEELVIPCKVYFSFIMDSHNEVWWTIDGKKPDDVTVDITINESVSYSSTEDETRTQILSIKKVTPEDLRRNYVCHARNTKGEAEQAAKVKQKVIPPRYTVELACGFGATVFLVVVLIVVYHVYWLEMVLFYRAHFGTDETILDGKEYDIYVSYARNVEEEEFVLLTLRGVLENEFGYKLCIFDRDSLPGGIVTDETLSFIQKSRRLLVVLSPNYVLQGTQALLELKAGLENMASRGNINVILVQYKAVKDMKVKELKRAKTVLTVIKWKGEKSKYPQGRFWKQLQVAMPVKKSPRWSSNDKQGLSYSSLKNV
The experiment in a line: flow cytometry (Fig. 11 legend).

The target in test [2] is T2, 重组食蟹猴IL-1RAP-ECD(S21-E359)-avi-his蛋白 (cynomolgus monkey, UniProt P59822 21-359 (rhesus entry), biotinylated in the Fab SPR assay).
T2 construct: also called 食蟹猴IL-1RAP-ECD-Avi-His; 重组食蟹猴IL-1RAP-avi-his蛋白
T2 sequence: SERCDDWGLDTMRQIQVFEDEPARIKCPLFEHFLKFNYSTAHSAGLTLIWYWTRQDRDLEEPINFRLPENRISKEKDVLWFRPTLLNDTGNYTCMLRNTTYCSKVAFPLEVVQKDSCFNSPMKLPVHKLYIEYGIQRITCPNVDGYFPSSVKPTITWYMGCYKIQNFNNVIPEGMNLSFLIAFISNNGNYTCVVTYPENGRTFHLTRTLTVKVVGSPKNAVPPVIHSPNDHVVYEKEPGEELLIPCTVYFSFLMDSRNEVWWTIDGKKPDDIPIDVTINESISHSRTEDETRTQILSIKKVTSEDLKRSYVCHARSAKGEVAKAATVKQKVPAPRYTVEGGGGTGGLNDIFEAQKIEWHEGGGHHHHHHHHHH
The experiment in a line: SPR; KD on cynomolgus IL-1RAP against KD on human IL-1RAP. For orientation: SPR reads the build-up and loss of mass on a sensor chip optically.

Test [3] concerns the target T3, 重组人IL-1RAP-ECD(S21-E359)-avi-his蛋白 (human, UniProt Q9NPH3 21-359, biotinylated in the BLI binning assay).
T3 construct: also called 人IL-1RAP-ECD-Avi-His; 重组人IL-1RAP-avi-his蛋白
T3 sequence: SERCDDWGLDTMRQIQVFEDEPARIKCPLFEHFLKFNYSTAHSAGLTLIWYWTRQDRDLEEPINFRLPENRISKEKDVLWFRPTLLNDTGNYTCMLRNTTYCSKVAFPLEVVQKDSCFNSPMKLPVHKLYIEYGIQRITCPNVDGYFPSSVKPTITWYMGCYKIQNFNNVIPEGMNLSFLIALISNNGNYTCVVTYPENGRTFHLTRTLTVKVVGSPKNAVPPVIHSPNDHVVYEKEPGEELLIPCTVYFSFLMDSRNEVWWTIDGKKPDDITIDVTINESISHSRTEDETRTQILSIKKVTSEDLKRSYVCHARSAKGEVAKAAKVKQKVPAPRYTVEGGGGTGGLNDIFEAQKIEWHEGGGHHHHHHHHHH
As to the kind of experiment: SPR; IgG1 LALA captured on anti-human IgG Fc chip, human IL-1RAP-avi-his as analyte.

In test [4] the target is T2, 重组食蟹猴IL-1RAP-ECD(S21-E359)-avi-his蛋白. The experiment in a line: SPR; IgG1 LALA captured on anti-human IgG Fc chip, cynomolgus IL-1RAP-avi-his as analyte.

B1: 抗IL-1RAP-C3-A3-mmIgG2a-LALA (antibody, V domains shown)
VH: EVQLLESGGGLVQPGGSLRLSCAASGFIFSHYGMSWVRQAPGKGLEWVSAISYDGEGTLYADSVKGRFTISRDNSKNTLYLQMNSLRAEDTAVYYCARFRYYTAFDYWGQGTLVTVSS
VL: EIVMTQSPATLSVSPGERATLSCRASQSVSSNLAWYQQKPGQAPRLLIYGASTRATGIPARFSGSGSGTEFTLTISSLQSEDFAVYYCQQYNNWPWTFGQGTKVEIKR
notes: Mouse IgG2a LALA; also called 抗IL-1RAP-C3-A3小鼠IgG2a LALA; 抗IL-1RAP-C3-A3克隆
Turning to B1, the binding result in test [1] is “binds”.

B2: 抗IL-1RAP-UCP02-C3 Fab (Fab, V domains shown)
VH: EVQLLESGGGLVQPGGSLRLSCAASGFTFRDYAMGWVRQAPGKGLEWVSAISYDGEGTLYADSVKGRFTISRDNSKNTLYLQMNSLRAEDTAVYYCARFRYYTAFDYWGQGTLVTVSS
VL: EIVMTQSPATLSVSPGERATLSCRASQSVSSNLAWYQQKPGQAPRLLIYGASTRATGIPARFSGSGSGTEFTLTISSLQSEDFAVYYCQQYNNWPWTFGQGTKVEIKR
notes: also called 抗IL-1RAP-C3; 抗IL-1RAP-C3 Fab
As to B2, the “fold lower affinity than for human IL-1RAP” value in test [2] was about 40 fold.

B3: 抗IL-1RAP-C8-RecC IgG1 LALA (antibody, V domains shown)
VH: QVQLVQSGAEVKKPGSSVKVSCKASGSPAEPYAIQWVRQAPGQGLEWMGYIIPSLGGYDYAQKFQGRVTITADESTSTAYMELSSLRSEDTAVYYCARGQTLYDSGRQFDIWGQGTLVTVSS
VL: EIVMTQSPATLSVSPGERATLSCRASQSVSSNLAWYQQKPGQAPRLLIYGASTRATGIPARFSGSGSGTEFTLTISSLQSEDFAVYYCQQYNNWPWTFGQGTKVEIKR
notes: Human IgG1 LALA format; also called 亲本克隆抗IL-1RAP-C8-RecC; anti-IL-1RAP-C8-RecC IgG1 LALA
As for B3, the binding result in test [3] and in test [4] was “binds” each time.
